T1: EsCas13d, nuclease-dead (Eubacterium siraeum, UniProt B0MS50, R295A;H300A;R849A;H854A)
T1 sequence: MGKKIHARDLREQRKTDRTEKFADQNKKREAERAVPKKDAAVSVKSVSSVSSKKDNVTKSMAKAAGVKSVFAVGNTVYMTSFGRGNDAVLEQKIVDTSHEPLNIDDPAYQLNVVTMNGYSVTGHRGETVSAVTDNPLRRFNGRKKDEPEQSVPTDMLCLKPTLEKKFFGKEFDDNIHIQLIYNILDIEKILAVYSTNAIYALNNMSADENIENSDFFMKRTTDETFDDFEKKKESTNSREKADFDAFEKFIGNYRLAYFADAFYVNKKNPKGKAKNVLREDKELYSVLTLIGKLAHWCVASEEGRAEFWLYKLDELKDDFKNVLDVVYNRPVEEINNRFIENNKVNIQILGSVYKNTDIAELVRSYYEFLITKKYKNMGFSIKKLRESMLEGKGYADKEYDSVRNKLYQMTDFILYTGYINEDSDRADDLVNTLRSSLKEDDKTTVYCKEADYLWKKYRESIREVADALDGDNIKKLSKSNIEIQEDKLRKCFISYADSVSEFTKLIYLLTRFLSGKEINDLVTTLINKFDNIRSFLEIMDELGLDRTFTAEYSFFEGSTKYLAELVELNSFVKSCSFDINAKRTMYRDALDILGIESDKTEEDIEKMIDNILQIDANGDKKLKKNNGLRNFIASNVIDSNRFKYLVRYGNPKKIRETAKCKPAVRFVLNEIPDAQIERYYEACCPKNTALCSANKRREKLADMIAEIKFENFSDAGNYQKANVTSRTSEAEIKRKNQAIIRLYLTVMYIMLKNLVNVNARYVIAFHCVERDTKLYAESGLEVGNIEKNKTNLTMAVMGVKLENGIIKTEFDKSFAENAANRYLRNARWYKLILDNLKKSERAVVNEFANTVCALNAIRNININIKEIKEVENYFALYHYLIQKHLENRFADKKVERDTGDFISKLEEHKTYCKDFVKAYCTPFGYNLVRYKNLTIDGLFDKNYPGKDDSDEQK

B1: target 2 MT 5'PFS AUG 3'PFS AGA (mixed)
RNA 1: CACCCGUGCAAAAUUGCAGGGGUCUAAAACCUUCUCCAAAUUGUUUCAUCCU
RNA 2: GGGAAUGGAUCCACAUCUACGAAUUCAUGAGGAUGAAACAAUUUGGAGAAGAGAAGAUCGGAAGAGCACACGU
B2: target 2 MT 5'PFS GGC 3'PFS UAG (mixed)
RNA 1: CACCCGUGCAAAAUUGCAGGGGUCUAAAACCUUCUCCAAAUUGUUUCAUCCU
RNA 2: GGGAAUGGAUCCACAUCUACGAAUUCGGCAGGAUGAAACAAUUUGGAGAAGUAGAGAUCGGAAGAGCACACGU
B3: target 2 MT 5'PFS GUG 3'PFS UAU (mixed)
RNA 1: CACCCGUGCAAAAUUGCAGGGGUCUAAAACCUUCUCCAAAUUGUUUCAUCCU
RNA 2: GGGAAUGGAUCCACAUCUACGAAUUCGUGAGGAUGAAACAAUUUGGAGAAGUAUAGAUCGGAAGAGCACACGU
B4: target 2 MT 5'PFS CGC 3'PFS AAC (mixed)
RNA 1: CACCCGUGCAAAAUUGCAGGGGUCUAAAACCUUCUCCAAAUUGUUUCAUCCU
RNA 2: GGGAAUGGAUCCACAUCUACGAAUUCCGCAGGAUGAAACAAUUUGGAGAAGAACAGAUCGGAAGAGCACACGU
B5: target 2 MT 5'PFS AAA 3'PFS AUA (mixed)
RNA 1: CACCCGUGCAAAAUUGCAGGGGUCUAAAACCUUCUCCAAAUUGUUUCAUCCU
RNA 2: GGGAAUGGAUCCACAUCUACGAAUUCAAAAGGAUGAAACAAUUUGGAGAAGAUAAGAUCGGAAGAGCACACGU
B6: target 2 MT 5'PFS AUG 3'PFS AGU (mixed)
RNA 1: CACCCGUGCAAAAUUGCAGGGGUCUAAAACCUUCUCCAAAUUGUUUCAUCCU
RNA 2: GGGAAUGGAUCCACAUCUACGAAUUCAUGAGGAUGAAACAAUUUGGAGAAGAGUAGAUCGGAAGAGCACACGU
B7: target 2 MT 5'PFS GCG 3'PFS AAU (mixed)
RNA 1: CACCCGUGCAAAAUUGCAGGGGUCUAAAACCUUCUCCAAAUUGUUUCAUCCU
RNA 2: GGGAAUGGAUCCACAUCUACGAAUUCGCGAGGAUGAAACAAUUUGGAGAAGAAUAGAUCGGAAGAGCACACGU
B8: target 2 MT 5'PFS CGC 3'PFS AAA (mixed)
RNA 1: CACCCGUGCAAAAUUGCAGGGGUCUAAAACCUUCUCCAAAUUGUUUCAUCCU
RNA 2: GGGAAUGGAUCCACAUCUACGAAUUCCGCAGGAUGAAACAAUUUGGAGAAGAAAAGAUCGGAAGAGCACACGU
B9: target 2 MT 5'PFS AAG 3'PFS UUA (mixed)
RNA 1: CACCCGUGCAAAAUUGCAGGGGUCUAAAACCUUCUCCAAAUUGUUUCAUCCU
RNA 2: GGGAAUGGAUCCACAUCUACGAAUUCAAGAGGAUGAAACAAUUUGGAGAAGUUAAGAUCGGAAGAGCACACGU
B10: target 2 MT 5'PFS UAC 3'PFS CAG (mixed)
RNA 1: CACCCGUGCAAAAUUGCAGGGGUCUAAAACCUUCUCCAAAUUGUUUCAUCCU
RNA 2: GGGAAUGGAUCCACAUCUACGAAUUCUACAGGAUGAAACAAUUUGGAGAAGCAGAGAUCGGAAGAGCACACGU
B11: target 2 MT 5'PFS CUG 3'PFS AAC (mixed)
RNA 1: CACCCGUGCAAAAUUGCAGGGGUCUAAAACCUUCUCCAAAUUGUUUCAUCCU
RNA 2: GGGAAUGGAUCCACAUCUACGAAUUCCUGAGGAUGAAACAAUUUGGAGAAGAACAGAUCGGAAGAGCACACGU
B12: target 2 MT 5'PFS CUG 3'PFS AAG (mixed)
RNA 1: CACCCGUGCAAAAUUGCAGGGGUCUAAAACCUUCUCCAAAUUGUUUCAUCCU
RNA 2: GGGAAUGGAUCCACAUCUACGAAUUCCUGAGGAUGAAACAAUUUGGAGAAGAAGAGAUCGGAAGAGCACACGU
B13: target 2 MT 5'PFS CUG 3'PFS AAA (mixed)
RNA 1: CACCCGUGCAAAAUUGCAGGGGUCUAAAACCUUCUCCAAAUUGUUUCAUCCU
RNA 2: GGGAAUGGAUCCACAUCUACGAAUUCCUGAGGAUGAAACAAUUUGGAGAAGAAAAGAUCGGAAGAGCACACGU
B14: target 2 MT 5'PFS UAG 3'PFS UUC (mixed)
RNA 1: CACCCGUGCAAAAUUGCAGGGGUCUAAAACCUUCUCCAAAUUGUUUCAUCCU
RNA 2: GGGAAUGGAUCCACAUCUACGAAUUCUAGAGGAUGAAACAAUUUGGAGAAGUUCAGAUCGGAAGAGCACACGU
B15: target 2 MT 5'PFS UAC 3'PFS CAC (mixed)
RNA 1: CACCCGUGCAAAAUUGCAGGGGUCUAAAACCUUCUCCAAAUUGUUUCAUCCU
RNA 2: GGGAAUGGAUCCACAUCUACGAAUUCUACAGGAUGAAACAAUUUGGAGAAGCACAGAUCGGAAGAGCACACGU
B16: target 2 MT 5'PFS AAC 3'PFS CUU (mixed)
RNA 1: CACCCGUGCAAAAUUGCAGGGGUCUAAAACCUUCUCCAAAUUGUUUCAUCCU
RNA 2: GGGAAUGGAUCCACAUCUACGAAUUCAACAGGAUGAAACAAUUUGGAGAAGCUUAGAUCGGAAGAGCACACGU
B17: target 2 MT 5'PFS GCA 3'PFS ACC (mixed)
RNA 1: CACCCGUGCAAAAUUGCAGGGGUCUAAAACCUUCUCCAAAUUGUUUCAUCCU
RNA 2: GGGAAUGGAUCCACAUCUACGAAUUCGCAAGGAUGAAACAAUUUGGAGAAGACCAGAUCGGAAGAGCACACGU
B18: target 2 MT 5'PFS CUG 3'PFS AAU (mixed)
RNA 1: CACCCGUGCAAAAUUGCAGGGGUCUAAAACCUUCUCCAAAUUGUUUCAUCCU
RNA 2: GGGAAUGGAUCCACAUCUACGAAUUCCUGAGGAUGAAACAAUUUGGAGAAGAAUAGAUCGGAAGAGCACACGU
B19: target 2 MT 5'PFS UAC 3'PFS CAA (mixed)
RNA 1: CACCCGUGCAAAAUUGCAGGGGUCUAAAACCUUCUCCAAAUUGUUUCAUCCU
RNA 2: GGGAAUGGAUCCACAUCUACGAAUUCUACAGGAUGAAACAAUUUGGAGAAGCAAAGAUCGGAAGAGCACACGU
B20: target 2 MT 5'PFS UAG 3'PFS UUA (mixed)
RNA 1: CACCCGUGCAAAAUUGCAGGGGUCUAAAACCUUCUCCAAAUUGUUUCAUCCU
RNA 2: GGGAAUGGAUCCACAUCUACGAAUUCUAGAGGAUGAAACAAUUUGGAGAAGUUAAGAUCGGAAGAGCACACGU
B21: target 2 MT 5'PFS GCA 3'PFS ACA (mixed)
RNA 1: CACCCGUGCAAAAUUGCAGGGGUCUAAAACCUUCUCCAAAUUGUUUCAUCCU
RNA 2: GGGAAUGGAUCCACAUCUACGAAUUCGCAAGGAUGAAACAAUUUGGAGAAGACAAGAUCGGAAGAGCACACGU
B22: target 2 MT 5'PFS UCU 3'PFS CUU (mixed)
RNA 1: CACCCGUGCAAAAUUGCAGGGGUCUAAAACCUUCUCCAAAUUGUUUCAUCCU
RNA 2: GGGAAUGGAUCCACAUCUACGAAUUCUCUAGGAUGAAACAAUUUGGAGAAGCUUAGAUCGGAAGAGCACACGU
B23: target 2 MT 5'PFS GCA 3'PFS ACG (mixed)
RNA 1: CACCCGUGCAAAAUUGCAGGGGUCUAAAACCUUCUCCAAAUUGUUUCAUCCU
RNA 2: GGGAAUGGAUCCACAUCUACGAAUUCGCAAGGAUGAAACAAUUUGGAGAAGACGAGAUCGGAAGAGCACACGU
B24: target 2 MT 5'PFS CGC 3'PFS AAG (mixed)
RNA 1: CACCCGUGCAAAAUUGCAGGGGUCUAAAACCUUCUCCAAAUUGUUUCAUCCU
RNA 2: GGGAAUGGAUCCACAUCUACGAAUUCCGCAGGAUGAAACAAUUUGGAGAAGAAGAGAUCGGAAGAGCACACGU
B25: target 1 C2U,U10A (mixed)
RNA 1: CACCCGUGCAAAAAUGCAGGGGUCUAAAACUGAGCGGAUAACCUCUCUAUGG
RNA 2: GGGAAUGGAUCCACAUCUACGAAUUCGUACCAUAGAGAGGUAAUCCGCUUACCGAGAUCGGAAGAGCACACGU
B26: target 1 insA 3' of 12,insA 3' of 4 (mixed)
RNA 1: CACCCGUGCAAAAAUGCAGGGGUCUAAAACUGAGCGGAUAACCUCUCUAUGG
RNA 2: GGGAAUGGAUCCACAUCUACGAAUUCGUACCAUAGAGAGGAUUAUCCGCAUCACCGAGAUCGGAAGAGCACACGU
B27: target 1 G13U,A16C (mixed)
RNA 1: CACCCGUGCAAAAAUGCAGGGGUCUAAAACUGAGCGGAUAACCUCUCUAUGG
RNA 2: GGGAAUGGAUCCACAUCUACGAAUUCGUACCAUAGCGAUGUUAUCCGCUCACCGAGAUCGGAAGAGCACACGU
B28: target 1 C2A,C21U (mixed)
RNA 1: CACCCGUGCAAAAAUGCAGGGGUCUAAAACUGAGCGGAUAACCUCUCUAUGG
RNA 2: GGGAAUGGAUCCACAUCUACGAAUUCGUACUAUAGAGAGGUUAUCCGCUAACCGAGAUCGGAAGAGCACACGU

These binders were tested against T1, EsCas13d, nuclease-dead (assay: crRNA (strand 1, pre-loaded); Mg2+; 40 mM Tris-HCl pH 7.5, 150 mM NaCl, 6 mM MgCl2, 1 mM DTT, 0.1% Tween-20, 0.2 mg/ml BSA; 25 C; 10 min per concentration, then washed). Conditions: tags: His6-TwinStrep-SUMO cleaved; N-terminal SNAP kept (SNAP-Surface 488); label: 3' end held by stalled T7 RNA polymerase.
B1 showed a Kd of 15 ± 5 nM. With B2 the Kd was 13.1 ± 2 nM. With B3 the Kd was 9.5 ± 0.7 nM. Work on B4 yielded a Kd of 4.9 ± 0.5 nM. Binder B5 has a Kd of 4.4 ± 1 nM. B6 gave a Kd of 11.1 ± 1.6 nM. Binder B7 has a Kd of 8.4 ± 1.3 nM. B8 was tested, and the Kd was 5.8 ± 1.6 nM. With B9 the Kd was 6.8 ± 1.3 nM. Binder B10 has a Kd of 8.5 ± 3 nM. In the case of B11, the Kd is reported as 3.4 ± 0.4 nM. Work on B12 yielded a Kd of 3 ± 0.4 nM. With B13 the Kd was 2.9 ± 0.32 nM. Binder B14 has a Kd of 7.2 ± 0.9 nM. Work on B15 yielded a Kd of 5.3 ± 1 nM. B16 showed a Kd of 9.1 ± 2.7 nM. For B17, the Kd was ~36 nM. B18 showed a Kd of 3.6 ± 0.5 nM. B19 gave a Kd of 6 ± 1.1 nM. B20 was tested, and the Kd was 8.1 ± 1.6 nM. B21 was tested, and the Kd was 10.2 ± 1.7 nM. In the case of B22, the Kd is reported as 14.1 ± 2.5 nM. B23 was tested, and the Kd was 13.3 ± 2 nM. For B24, the Kd was 4 ± 0.6 nM. Work on B25 yielded a Kd of 11.6 ± 1.4 nM. B26 showed a Kd of 19.2 ± 1.2 nM. With B27 the Kd was 68 ± 14 nM. Binder B28 has a Kd of 8.2 ± 0.5 nM.

— publication PMC10786891, “Massively parallel profiling of RNA-targeting CRISPR-Cas13d”
